{
  "source": "the DeepSol protein solubility set",
  "data": [
    {"assay": "soluble on expression in E. coli; label from the status in PepcDB or PDB records", "values": [
      {"sequence": "MLFDLGYVDLQDRSNAEILTHLITKKAILLLGDKQNPADLLAIQDEVQERYLVNFSLFQSMPDFWGLEQNFPIMPLDRLDEEPTRSASIWDITCDSDGEISYSKDKPLFLHDVDVEKENYFLGFFLVGAYQEVLGMKHNLFTHPTEAIISINEKGYEVEGIIEAQSILDTLEDLDYDIHAILEHHHHHH", "soluble on expression in E. coli": "not soluble"},
      {"sequence": "MPVAEQPYHHGSLRRVLLARAESTLEKDGVDGLSLRQLAREAGVSHAAPSKHFRDRQALLDALAESGFLRLTAALERAVEEAESHARARFAALAGAYVSFALAHRELLALMYGNKHAPGAASQVVEAGHASMDLTVRIVTEAQAAGDIGPGDASRIALVAFATFHGIATLAAGGMLDGAPVDEVVTAASDTFWRGLAQA", "soluble on expression in E. coli": "soluble"},
      {"sequence": "MSLGIKVNRLKVEDQILRQFGGNLLLEKDGNRGFIAFIGRGLIDFTERIRILATVSRIKDILFIGTAGSLSNEILIGDLNIPKYAIPFENVSDFYADPTIAIPQADEKLLNEVYEYAEETGVKTHSTLHATLLFPYSETTEFLNYLLNIGVSTIDMEVSAFYKMSRFYGKRAVAVLRISDMPLIELHKQEELIKARREIAVNAVFRITLRFLKLEGHHHHHH", "soluble on expression in E. coli": "not soluble"},
      {"sequence": "MHKNREKNAMRREVNRADIGGKSGNKVKDCHVTIIRSLLSQIKENSLRVLLTYRKLFTINTKIAVEFIINSCIVYYKRSPHLL", "soluble on expression in E. coli": "not soluble"},
      {"sequence": "LPYPIPIALTDALDRSVSAELVAVLVAVTQGEPRVLTTEDARALPAGPFELAHRSLQAGLRAWVETQTHHPLGYVEQLYTFADSDRSNEAGARVISVSYLGLTREAGATGVAQVGWQHWYRYFPWEDWRAGRPAIIADEIAPRLLAWAGAGADAAARAQRRQRVALTFGLDGAGWNEDMVLQRYELLFEAGLVPESRHPDASGLPVAGQSMRHDHRRILATGIAR", "soluble on expression in E. coli": "not soluble"},
      {"sequence": "MMRRTLENRNAQTKQLQTAVSNVEKHFGELCQIFAAYVRKTARLRDKADLLVNEINAYAATETPHLKLGLMNFADEFAKLQDYRQAEVERLEAKVVEPLKTYGTIVKMKRDDLKATLTARNREAKQLTQLERTRQRNPSDRHVISQAETELQRAAMDASRTSRHLEETINNFERQKMKDIKTIFSEFITIEMLFHGKALEVYTAAYQNIQNIDEDEDLEVFRNSLYAPDYSSRLDIVRANSKSPLQRSLSAKCVSGTGQEAGWAATCQTLI", "soluble on expression in E. coli": "soluble"},
      {"sequence": "MGHHHHHHSHMAFCAILLVPSLCRMPSLPTSPWAFPVHWAGFMFKPLDWQGNDFFPPQDEVLAPLSWHKNTFKA", "soluble on expression in E. coli": "not soluble"},
      {"sequence": "MAPWIGGKRNLARRICAILDRSPCLTYAEPFVGMAGIFLRRSSRPRAEVINDRGRDVANLFRILQRHYPQFLDTLRFQLTTRAEFERLGATDPDTLTDLERAARFLYLQRTAFGGKVSGRNFGVSSHRPGRFNLTTLEPMLEDLHSRLAGVIVECLDWADFLARYDRPETLFYLDPPYWGSETDYGRGLFQREDFGLMAERLAKLQGRFLLSINDVPQIRAIFGRFRITEVTTTYSISGSAKGNGTARPELLVSNWDIGEEG", "soluble on expression in E. coli": "not soluble"},
      {"sequence": "MYFVDRKKLEETLSYMEQMLDRYKAEERWDEPLRQLALERIAHIVIEAVLDVGNAMIDGFIMRDPGSYNDIIDILADEQVISPADADRLKAFIAHRKMLVHEYARVDHAKLLADLNEHLPALEAYPKAVRAYLENELGPVSAFRN", "soluble on expression in E. coli": "soluble"},
      {"sequence": "MSMDNHIVIMAGGIGSRFWPMSTPECPKQFIDVMGCGRTLIQLTADRFDGVCPRENVWVVTSEKYIDIVREQLPEIPESNILAEPCARNTAPCIAYACWKIKKKHPNANVVVTPSDALVINTGEFRRVVEKALRFTDNSSAIVTLGIKPTRPETGYGYIAAGDQIMTDKEIFTVDAFKEKPDRETADRYLAEGNYFWNAGIFVWNVRTITSVMRVYAPGIAQIFDRIFPDFYTEKENETIKKLFPTCEAISIDYAVMEKAQEIYVLPASFGWSDLGTWGALRGLLPQDKSGNATVGADVRLYESKNCIVHTSEEKRVVIQGLDGYIIAEKDNTLLICKLDEEQRIKEFSK", "soluble on expression in E. coli": "not soluble"},
      {"sequence": "SNAMNVIRLKEDKFREALRLSEYAFQYKVDEDRLQQQITKMKESHEVYGIMEGENLAAKLHLIPFHIYIGKEKFKMGGVAGVATYPEYRRSGYVKELLQHSLQTMKKDGYTVSMLHPFAVSFYRKYGWELCANLLVCHMTKSDLVMKKQVNGTVKRFNKESHPEEVEKLYETFAELFSGMLVRNEKWWLQAVYDDLTLAIYYDENQTAAGYMLYKIENYKMTVEEFVPLHNEARNGLWNFICQHDSMIKDLEMTVSENEPLLYTLQEPRVKTEIKPYFMGRIVDVEQFLKQYELNWNNVQQEVILHITDSFAQWNNITVRIANHEITIIEEPIDKGIKLDINALSTILFGYRRPLELNELELISGSEEEIRAFESVVPVRKPFIYDFF", "soluble on expression in E. coli": "soluble"}
    ]}
  ]
}
